Laboratory results published in US20260167681A1 (POSTECH RESEARCH AND BUSINESS DEVELOPMENT FOUNDATION, published 2026).

Biological target: T1, ovalbumin (OVA) (UniProt P01012 2-386)
T1 construct: also called model antigen ovalbumin
T1 sequence (looked up): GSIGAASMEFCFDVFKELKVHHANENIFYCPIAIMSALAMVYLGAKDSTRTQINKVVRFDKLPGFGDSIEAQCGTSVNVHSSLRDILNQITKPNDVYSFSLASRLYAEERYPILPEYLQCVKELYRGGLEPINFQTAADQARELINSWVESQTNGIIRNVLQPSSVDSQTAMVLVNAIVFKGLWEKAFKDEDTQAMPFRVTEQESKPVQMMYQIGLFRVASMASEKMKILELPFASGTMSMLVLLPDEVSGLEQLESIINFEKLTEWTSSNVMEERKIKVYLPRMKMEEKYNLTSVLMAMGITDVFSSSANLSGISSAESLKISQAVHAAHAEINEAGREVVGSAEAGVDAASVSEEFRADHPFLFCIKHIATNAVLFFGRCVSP
Test: zeta potential (DLS, Zetasizer) of ovalbumin/MAP-AP mixtures at weight ratios 2, 1 and 0.5
Procedure: First, ovalbumin and the adhesive adjuvant protein (MAP-AP) were prepared at a concentration of 1 mg/mL each, and nanocomplexes were then prepared with ovalbumin and MAP-AP at weight ratios of 2, 1, and 0.5, respectively. Dynamic light scattering (DLS, Zetasizer, UK) was used to measure the surface charge of the samples. The concentration of each substance was maintained below 1 mg/mL, and all measurements were performed at room temperature.
As a result, the spontaneous formation of nanocomplexes by the negatively charged ovalbumin and adhesive adjuvant protein (MAP-AP) was confirmed through changes in surface charge. When the mass ratio of ovalbumin to MAP-AP reached 1 or higher, the adhesive adjuvant protein (MAP-AP) became saturated, and the mass ratio was ultimately set to 1.

B1: adhesive adjuvant protein (MAP-AP; MAP-based Adjuvant Protein) (other)
chain: MAKPSYPPTYKAKPSYPPTYKAKPSYPPTYKAKPSYPPTYKAKPSYPPTYKAKPSYPPTYKPWSSEEYKGGYYPGNTYHYHSGGSYHGSGYHGGYKGKYYGKAKKYYYKYKNSGKYKYLKKARKYHRKGYKKYYGGGSSAKPSYPPTYKAKPSYPPTYKAKPSYPPTYKAKPSYPPTYKAKPSYPPTYKAKPSYPPTYKLGGGGSAKFVAAWTLKAAA
notes: Recombinant fusion protein made in E. coli; also called MAP-based Adhesive adjuvant protein
For B1, the “mass ratio of ovalbumin to MAP-AP at which MAP-AP is saturated” value was ≥ 1 mass ratio (ovalbumin:MAP-AP).
